According to patent US20150353923, “Method for Identifying RNA Segments Bound by RNA-Binding Proteins or Ribonucleoprotein Complexes” (Rockefeller University, published 2015):

T1: QKI (Quaking) (UniProt Q96PU8-9 Q96PU8-9:1-319)
T1 sequence: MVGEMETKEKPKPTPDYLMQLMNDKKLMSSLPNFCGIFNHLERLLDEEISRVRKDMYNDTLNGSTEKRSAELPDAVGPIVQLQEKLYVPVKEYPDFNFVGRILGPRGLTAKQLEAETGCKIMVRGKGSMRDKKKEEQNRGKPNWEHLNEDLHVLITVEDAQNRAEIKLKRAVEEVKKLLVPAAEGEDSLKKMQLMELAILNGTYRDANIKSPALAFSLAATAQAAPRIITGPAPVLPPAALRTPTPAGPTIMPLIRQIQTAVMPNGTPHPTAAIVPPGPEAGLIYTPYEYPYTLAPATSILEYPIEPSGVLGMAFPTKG


Key:
Details in all cases: tags: N-terminal His6 (pDEST17, E. coli); label: 32P
QKI (Quaking) [1] = biological target: T1, QKI (Quaking); assay: EMSA; 330 mM KCl, 10 mM MgCl2, pH 7.4, 100 ng tRNA
Experimental: (§1) Radiolabeled RNA (1 nM) was incubated with recombinant His6-QKI protein at various concentrations and 100 ng tRNA in 20 μl of 20 mM HEPES-KOH, pH 7.4, 330 mM KCl, 10 mM MgCl2, 0.1 mM EDTA and 0.01% IGEPAL CA630 (Sigma). After addition of 6 μl loading dye (40% glycerol, bromophenol blue in binding buffer), the solution was loaded onto a native 10% acrylamide gel containing 0.5×TBE, running at 200 V for 2 h at room temperature, using 0.5×TBE as running buffer. The protein-bound RNA and the free RNA were quantified using a phosphorimager.

QKI (Quaking) [2] = biological target: T1, QKI (Quaking); assay: EMSA; 4SU position has no significant effect on affinity; 330 mM KCl, 10 mM MgCl2, tRNA
Experimental: as §1

QKI (Quaking) [3] = biological target: T1, QKI (Quaking); assay: EMSA; binding unaffected by 4SU; 330 mM KCl, 10 mM MgCl2, tRNA
Experimental: as §1

Binder | binding result (QKI (Quaking) [2]) | other results
GUAUGCCAUUAACAAAUUCAUUAACAA (ssRNA) [HOXD13 3'UTR QKI-site oligoribonucleotide] | – | binding result (QKI (Quaking) [1]): binds
GUAUGCCAUUAACAAAUUCAUUAACAA (ssRNA, 4-thiouridine at position 2) [QKI oligo 4SU at U2] | binds | –
GUAUGCCAUUAACAAAUUCAUUAACAA (ssRNA, 4-thiouridine at position 10 (position 3 of recognition element)) [QKI oligo 4SU at U10] | – | binding result (QKI (Quaking) [3]): binds
GUAUGCCAUUAACAAAUUCAUUAACAA (ssRNA, 4-thiouridine at position 4) [QKI oligo 4SU at U4] | binds | –
